From patent US20100330094A1 (NOVIMMUNE S A, published 2010) come the findings set out here.

Test [1] deals with T1, recombinant human IP-10 (hIP-10) (human, UniProt P02778 22-98).
T1 construct: mature; Commercial recombinant chemokine (Peprotech); also called rhIP-10; CXCL10
T1 sequence (looked up): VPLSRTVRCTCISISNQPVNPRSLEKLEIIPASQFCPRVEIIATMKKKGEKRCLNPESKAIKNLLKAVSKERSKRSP
The experiment in a line: SPR (Biacore 2000): IgG1 captured on anti-human IgG, IP-10 in solution, 25 C, 1:1 Langmuir fit. Here is the method:
(§1) 200RU (response unit) of a goat anti-human polyclonal IgG (ahIgG; Biacore AB, Uppsala, Sweden) were immobilized by EDC/NHS chemistry on a C1 Biacore chip. […] The surface was regenerated after each cycle by injection of 10 mM glycine pH=1.5 at 30 μL/min, for 30s followed by 1 min. of stabilization time in HBS-EP buffer.
(§2) Binding was measured by passing either hIP-10 (Peprotech, Rocky Hill N.J.) or a NusA-hIP-10 fusion protein at the following concentrations: 34.7 nM, 11.6 nM, 3.85 nM, 1.28 nM, 0.428 nM, 0.142 nM and 0 nM. All solutions were diluted in HBS-EP buffer (Biacore AB, Uppsala, Sweden). Injection was performed at 50 μl/min for 3 min. followed by 12 min. of dissociation time and the temperature was set at 25° C. […] Very similar values were obtained using rhIP-10 or the NusA-hIP-10 fusion, but better response signals were obtained with the fusion protein due to its larger size that induces a better response on the Biacore.

The target of test [2] is T2, native human IP-10 (hIP-10) (human, UniProt P02778 22-98).
T2 sequence (looked up): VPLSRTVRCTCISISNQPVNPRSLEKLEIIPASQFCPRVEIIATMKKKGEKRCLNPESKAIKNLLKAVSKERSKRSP
The experiment in a line: cell-based or functional assay.

In test [3] the target is T1, recombinant human IP-10 (hIP-10). The experiment in a line: cell-based or functional assay.
Test [4] addresses T3, hIP-10 immobilized on glycosaminoglycan (FITC-labeled heparin) (human, UniProt P02778 22-98).
T3 construct: mature; also called hIP-10 on GAG; hIP-10 immobilized on GAG
T3 sequence (looked up): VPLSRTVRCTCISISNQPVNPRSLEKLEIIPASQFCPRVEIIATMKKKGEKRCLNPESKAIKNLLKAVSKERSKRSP
The experiment in a line: capture assay: IgG captured on coated anti-human Fc, FITC-heparin pre-incubated with hIP-10 added, revealed with HRP-coupled anti-FITC Fab. On the procedure: As with many chemokines, hIP-10 is able to oligomerize and bind to glycosaminoglycans (GAG) expressed at surface of cells such as endothelial cells. In order to make sure that the antibodies were able to bind to hIP-10 in this context, they were tested in the following assay. Maxisorb 96 well plates were coated with anti-human Fc (Jackson, West Grove, Pa.) as capturing reagent for the human IgG to be tested. FITC-labeled heparin (Sigma, St. Louis, Mo.) was used as a prototypic GAG and was incubated with hIP-10 before addition to the captured anti-hIP10 antibodies. […] As shown in FIG. 4 some antibodies were able to bind hIP-10 when bound to GAG whereas others were unable to do so probably because their epitope on hIP-10 was no longer accessible within the oligomeric structure.

In test [5] the target is T1, recombinant human IP-10 (hIP-10). The experiment in a line: SPR (Biacore 2000). On the procedure:
as §1, §2

The target in test [6] is T4, NusA-cynomolgus IP-10 fusion protein (cynomolgus, UniProt A0A2K5WKN6 22-98).
T4 construct: mature; not shown: NusA fusion partner encoded by expression plasmid pET43 (Novagen); vector-encoded linker with Factor X protease cleavage site
T4 sequence: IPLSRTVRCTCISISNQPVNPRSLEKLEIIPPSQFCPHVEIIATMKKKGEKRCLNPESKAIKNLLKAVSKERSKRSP
The experiment in a line: capture ELISA: NI-0801 coated, concentration range of NusA fusion protein, revealed with anti-NusA antibody. The text has this:
(§3) Briefly, IP-10 cloned from cDNA isolated from mouse, rat, rabbit and cynomolgus as well as a panel of human chemokines was expressed and purified as described in Example 1.
On the technique in general: An ELISA detects its analyte on a solid surface through an enzyme-linked reagent.

Test [7] addresses T5, NusA-hIP-10 fusion protein (human, UniProt P02778 22-98).
T5 construct: mature; not shown: NusA fusion partner encoded by expression plasmid pET43 (Novagen); vector-encoded linker with Factor X protease cleavage site at the C-terminus of NusA; AviTag biotinylation site (Avidity) at the C-terminus of the chemokine
T5 sequence (looked up): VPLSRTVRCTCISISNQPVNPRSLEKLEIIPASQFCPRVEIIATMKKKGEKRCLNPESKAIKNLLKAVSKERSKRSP
The description is as above.
Source text: as §3

The target of test [8] is T6, NusA-rat IP-10 fusion protein (rat, UniProt P48973 22-98).
T6 construct: mature; not shown: NusA fusion partner encoded by expression plasmid pET43 (Novagen); vector-encoded linker with Factor X protease cleavage site
T6 sequence (looked up): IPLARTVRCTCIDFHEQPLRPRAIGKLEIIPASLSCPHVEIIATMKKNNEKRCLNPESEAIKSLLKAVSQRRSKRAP
The test is described as above.
Source text: as §3

Test [9] deals with T7, NusA-mouse IP-10 fusion protein (mouse, UniProt P17515 22-98).
T7 construct: mature; not shown: NusA fusion partner encoded by expression plasmid pET43 (Novagen); vector-encoded linker with Factor X protease cleavage site
T7 sequence (looked up): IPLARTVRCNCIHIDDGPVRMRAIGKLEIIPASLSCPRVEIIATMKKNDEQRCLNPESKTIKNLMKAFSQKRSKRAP
Described as above.
Source text: as §3

B1: CC21R3P1_F1, IgG1 format (antibody, V domains shown)
VH: QVQLVESGGGVVQPGRSHTLSCAASGFAFKNSGIHWVRQAPGKGLEWVAVISYDGSNKFYADSVKGRFTISRDNSQNTVYLQMTDLRPDDTAVYYCARDGSESEYLDYWGKGTLVTVSS
VL: NFMLTQPHSVSESPGKTVTISCTGSGGSIDRNYVQWYQQRPGSAPITVIYEDNQRPSGVPDRFSGSIDSSSNSASLTISGLRTDDEADYYCQSYDSINLWVFGGGTKVTVL
One may read the Kd as the constant that tells how readily two partners part at equilibrium. Turning to B1, the Kd in test [1] was determined as 9.2 nM. The “Chemotaxis IC50 (nM); native hIP-10 at 0.6 nM” value (“Chemotaxis IC50 … at 0.6 nM” below) in test [2] amounted to 11 nM. Also, in test [3], the “Calcium flux IC50 (nM); 10 nM rhIP-10” value was found to be 9.8 nM and the “Chemotaxis IC50 (nM); 1 nM rhIP-10” value was determined as 3 nM.

B2: CC21R3P1_A2, IgG1 format (antibody, V domains shown)
VH: QLVESGGGLIQPGGSLRLSCAASGFSVSDTYMNWVRQAPGKGLEWVSSIYSDDSTYYADSVKGRFTISRDNSKNTLFLQINSLRAEDTAVYYCARDKEYVTSTGGAYYYFYYMDVWGQGTLVTVSS
VL: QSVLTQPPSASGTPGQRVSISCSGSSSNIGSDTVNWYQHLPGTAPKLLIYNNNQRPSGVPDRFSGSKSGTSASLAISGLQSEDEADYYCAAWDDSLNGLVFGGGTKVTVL
For the molecule B2, the binding result in [4] is on record as “no binding”. In addition, in test [2], the “Chemotaxis IC50 … at 0.6 nM” value amounted to 6.2 nM. Besides, in test [3], the “Calcium flux IC50 (nM); 10 nM rhIP-10” value worked out at 9.8 nM and the “Chemotaxis IC50 (nM); 1 nM rhIP-10” value turned out to be 3.2 nM.

B3: CB21R3P6_G7, IgG1 format (antibody, V domains shown)
VH: QVQLVQSGAEVKKPGSSVTVSCKASGGTFSSFSITWLRQAPGQGLEWMGEITPMFGIANYAQKFQGRVTISADESTSTAYMELSGLTSEDTAMYYCARDGRFDVSDLLTDKPKVTINYNGMDVWGQGTLVTVSS
VL: QSVLTQPPSASGTPGQRVTISCSGSSSNIGSNTVNWYQRLPGAAPQLLIYNNDQRPSGIPDRFSGSKSGTSGSLVISGLQSEDEADYYCASWDDSLNGRVFGGGTKLTVL
As for B3, the binding result in [4] is listed as “no binding”. In test [2], the “Chemotaxis IC50 … at 0.6 nM” value was found to be 7.8 nM. For the same molecule, in test [3], the “Calcium flux IC50 (nM); 10 nM rhIP-10” value came to 6.2 nM and the “Chemotaxis IC50 (nM); 1 nM rhIP-10” value came out at 8.8 nM.

B4: NI-0801, IgG1 format (antibody, V domains shown)
VH: QVQLVESGGGVVQPGRSLRLSCAASGFTFSNSGIHWVRQAPGKGLEWVAVISYDGSNKYYADSVKGRFTISRDNSKNTLYLQMNSLRAEDTAVYYCARLRDNAEYTDYWGQGTLVTVSS
VL: NFMLTQPHSVSESPGKTVTISCTGSGGSIASNYVQWYQQRPGSSPTTVIYEDNQRPSGVPDRFSGSIDSSSNSASLTISGLKTEDEADYYCQSYDPLPVWVFGGGTKLTVLG
notes: Claims 7 and 21 swap the heavy and light chain numbers
The EC50 (read off the curve) is the concentration that produces a half-maximal response. Read a low EC50 (read off the curve) as a more potent agent. As for B4, the “fold improvement of affinity over CC21R3P1_F1” value in test [5] is 90 fold. Besides, the Kd in test [1] is 0.109 nM. Moreover, the “EC50 (read off the curve)” value in test [6] is roughly 1 nM; in test [7], roughly 3 nM. Also, the binding result in test [8] and in test [9] was “no binding (tested: about 2e-7 M)” each time. In addition, the “Chemotaxis IC50 … at 0.6 nM” value in test [2] was found to be 0.58 nM. For the same molecule, the “Calcium flux IC50 (nM); 10 nM rhIP-10” value in test [3] turned out to be 6.3 nM. In test [3], the “Chemotaxis IC50 (nM); 0.2 nM rhIP-10” value was 0.24 nM.

B5: CF1N1R3P4_C7, IgG1 format (antibody, V domains shown)
VH: QVQLVESGGGVVQPGRSLRLSCAASGFTFSNSGIHWVRQAPGKGLEWVAVISYDGSNKFYADSVKGRFTISRDNSKNTLYLQMNSLRAEDTAVYYCAKLRDNAEYTDYWGQGTLVTVSS
VL: NFMLTQPHSVSESPGKTVTISCTGSGGSIDRNYVQWYQQRPGSSPTTVIYEDNQRPSGVPDRFSGSIDSSSNSASLTISGLKTEDEADYYCQSYDPLPVWVFGGGTKLTVL
Regarding B5, the “Chemotaxis IC50 … at 0.6 nM” value in [2] amounted to 0.64 nM. In test [3], the “Calcium flux IC50 (nM); 10 nM rhIP-10” value was 4.1 nM and the “Chemotaxis IC50 (nM); 0.2 nM rhIP-10” value worked out at 0.19 nM.
